Laboratory results as given in publication PMC8501970, “Structural basis for activation of Swi2/Snf2 ATPase RapA by RNA polymerase” (Nucleic Acids Research, 2021).

Assays:
[1] = molecular target: T1, RNAP β subunit (Escherichia coli, UniProt P0A8V2 1-1342); experiment: cryo-EM structure; RapA–RNAP complex purified by gel filtration, 10 μM incubated with 25 μM DNA/RNA hybrid in 20 mM Tris–HCl pH 7.5, 50 mM NaCl, 5 mM MgCl2, 0.2 mM AMPPNP at 37°C for 10 min; 8 mM CHAPSO added before grids; 3.4 Å map; details: both partners purified
T1 construct: RNA polymerase beta subunit, Escherichia coli, as in the core enzyme m2; Stood in the structure as a subunit of the RNAP elongation complex; also called β flap tip helix (FTH) lies in it; source: part of the purified E. coli RNAP core enzyme

[2] = molecular target: T2, RNAP β' subunit (Escherichia coli, UniProt P0A8T7 1-1407); experiment: as above; details: both partners purified
T2 construct: RNA polymerase beta' subunit, Escherichia coli, as in the core enzyme m2; Stood in the structure as a subunit of the RNAP elongation complex; source: part of the purified E. coli RNAP core enzyme
T2 sequence (P0A8T7 whole entry): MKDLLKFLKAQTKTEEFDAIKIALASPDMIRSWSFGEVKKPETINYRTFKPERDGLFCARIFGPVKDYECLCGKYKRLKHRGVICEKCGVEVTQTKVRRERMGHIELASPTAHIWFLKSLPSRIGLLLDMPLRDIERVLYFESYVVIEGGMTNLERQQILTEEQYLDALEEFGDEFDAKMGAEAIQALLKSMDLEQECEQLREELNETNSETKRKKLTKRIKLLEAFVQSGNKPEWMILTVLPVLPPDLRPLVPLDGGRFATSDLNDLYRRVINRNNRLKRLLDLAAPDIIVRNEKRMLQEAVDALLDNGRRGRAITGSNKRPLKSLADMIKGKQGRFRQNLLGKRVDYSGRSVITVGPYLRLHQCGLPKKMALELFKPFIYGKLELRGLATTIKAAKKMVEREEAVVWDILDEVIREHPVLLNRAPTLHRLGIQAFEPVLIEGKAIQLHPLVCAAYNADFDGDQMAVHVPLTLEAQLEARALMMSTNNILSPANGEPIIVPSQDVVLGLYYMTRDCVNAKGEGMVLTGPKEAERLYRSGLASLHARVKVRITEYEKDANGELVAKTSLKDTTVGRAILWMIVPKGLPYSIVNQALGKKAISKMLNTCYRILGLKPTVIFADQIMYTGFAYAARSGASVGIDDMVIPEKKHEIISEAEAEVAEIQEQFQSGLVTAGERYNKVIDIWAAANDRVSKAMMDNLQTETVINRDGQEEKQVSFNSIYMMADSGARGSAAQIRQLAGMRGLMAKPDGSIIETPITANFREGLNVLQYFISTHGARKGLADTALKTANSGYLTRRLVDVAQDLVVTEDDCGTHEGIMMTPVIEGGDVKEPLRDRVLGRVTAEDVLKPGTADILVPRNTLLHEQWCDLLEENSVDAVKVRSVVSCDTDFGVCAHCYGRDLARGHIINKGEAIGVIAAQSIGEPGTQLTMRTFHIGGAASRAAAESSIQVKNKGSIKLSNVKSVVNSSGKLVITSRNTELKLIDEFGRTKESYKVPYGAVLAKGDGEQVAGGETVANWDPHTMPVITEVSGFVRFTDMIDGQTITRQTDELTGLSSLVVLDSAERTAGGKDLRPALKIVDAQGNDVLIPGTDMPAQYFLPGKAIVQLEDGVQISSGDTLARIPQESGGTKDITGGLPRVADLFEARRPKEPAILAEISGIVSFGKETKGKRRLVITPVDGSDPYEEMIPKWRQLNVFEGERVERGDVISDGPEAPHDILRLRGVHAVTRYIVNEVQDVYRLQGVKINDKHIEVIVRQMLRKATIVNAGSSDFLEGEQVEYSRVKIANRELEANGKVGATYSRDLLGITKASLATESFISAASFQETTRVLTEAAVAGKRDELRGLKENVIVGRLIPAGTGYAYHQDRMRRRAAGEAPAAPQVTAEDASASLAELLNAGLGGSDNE

T1 sequence (P0A8V2 whole entry): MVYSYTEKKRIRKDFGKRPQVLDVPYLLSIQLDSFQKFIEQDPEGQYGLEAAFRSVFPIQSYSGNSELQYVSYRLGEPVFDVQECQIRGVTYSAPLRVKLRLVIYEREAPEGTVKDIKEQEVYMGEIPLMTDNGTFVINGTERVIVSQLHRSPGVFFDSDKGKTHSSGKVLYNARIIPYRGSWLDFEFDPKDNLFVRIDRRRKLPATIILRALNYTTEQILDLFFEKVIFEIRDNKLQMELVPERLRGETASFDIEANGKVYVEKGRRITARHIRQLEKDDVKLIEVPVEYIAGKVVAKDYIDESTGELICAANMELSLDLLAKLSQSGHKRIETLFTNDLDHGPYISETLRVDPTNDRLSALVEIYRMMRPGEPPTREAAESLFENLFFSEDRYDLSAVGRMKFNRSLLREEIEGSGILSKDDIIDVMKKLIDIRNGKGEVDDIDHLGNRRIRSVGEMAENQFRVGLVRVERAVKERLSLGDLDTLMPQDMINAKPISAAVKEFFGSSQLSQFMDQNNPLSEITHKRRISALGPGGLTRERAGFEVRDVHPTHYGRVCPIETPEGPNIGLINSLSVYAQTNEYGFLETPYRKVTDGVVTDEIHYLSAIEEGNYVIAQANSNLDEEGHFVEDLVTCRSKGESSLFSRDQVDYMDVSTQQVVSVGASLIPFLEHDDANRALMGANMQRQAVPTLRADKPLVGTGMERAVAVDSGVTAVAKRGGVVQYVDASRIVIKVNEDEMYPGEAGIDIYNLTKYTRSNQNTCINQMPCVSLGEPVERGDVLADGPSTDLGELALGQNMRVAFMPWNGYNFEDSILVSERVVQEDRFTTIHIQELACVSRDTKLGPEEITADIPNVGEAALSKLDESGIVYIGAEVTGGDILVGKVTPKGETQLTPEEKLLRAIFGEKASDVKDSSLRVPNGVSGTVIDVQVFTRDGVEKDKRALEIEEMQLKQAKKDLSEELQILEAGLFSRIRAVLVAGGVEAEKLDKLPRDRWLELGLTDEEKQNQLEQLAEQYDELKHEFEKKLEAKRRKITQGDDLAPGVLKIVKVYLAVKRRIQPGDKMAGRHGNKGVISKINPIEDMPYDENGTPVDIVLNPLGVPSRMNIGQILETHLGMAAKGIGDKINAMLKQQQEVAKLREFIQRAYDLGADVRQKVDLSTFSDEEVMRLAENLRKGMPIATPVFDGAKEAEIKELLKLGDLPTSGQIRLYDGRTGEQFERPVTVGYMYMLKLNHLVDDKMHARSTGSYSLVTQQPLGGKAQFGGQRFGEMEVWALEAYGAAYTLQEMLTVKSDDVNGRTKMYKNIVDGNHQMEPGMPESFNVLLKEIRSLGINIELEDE

B1: N-terminal His-tagged RapA protein (enzyme, Escherichia coli)
chain: MPFTLGQRWISDTESELGLGTVVAVDARTVTLLFPSTGENRLYARSDSPVTRVMFNPGDTITSHDGWQMQVEEVKEENGLLTYIGTRLDTEESGVALREVFLDSKLVFSKPQDRLFAGQIDRMDRFALRYRARKYSSEQFRMPYSGLRGQRTSLIPHQLNIAHDVGRRHAPRVLLADEVGLGKTIEAGMILHQQLLSGAAERVLIIVPETLQHQWLVEMLRRFNLRFALFDDERYAEAQHDAYNPFDTEQLVICSLDFARRSKQRLEHLCEAEWDLLVVDEAHHLVWSEDAPSREYQAIEQLAEHVPGVLLLTATPEQLGMESHFARLRLLDPNRFHDFAQFVEEQKNYRPVADAVAMLLAGNKLSNDELNMLGEMIGEQDIEPLLQAANSDSEDAQSARQELVSMLMDRHGTSRVLFRNTRNGVKGFPKRELHTIKLPLPTQYQTAIKVSGIMGARKSAEDRARDMLYPERIYQEFEGDNATWWNFDPRVEWLMGYLTSHRSQKVLVICAKAATALQLEQVLREREGIRAAVFHEGMSIIERDRAAAWFAEEDTGAQVLLCSEIGSEGRNFQFASHMVMFDLPFNPDLLEQRIGRLDRIGQAHDIQIHVPYLEKTAQSVLVRWYHEGLDAFEHTCPTGRTIYDSVYNDLINYLASPDQTEGFDDLIKNCREQHEALKAQLEQGRDRLLEIHSNGGEKAQALAESIEEQDDDTNLIAFAMNLFDIIGINQDDRGDNMIVLTPSDHMLVPDFPGLSEDGITITFDREVALAREDAQFITWEHPLIRNGLDLILSGDTGSSTISLLKNKALPVGTLLVELIYVVEAQAPKQLQLNRFLPPTPVRMLLDKNGNNLAAQVEFETFNRQLNAVNRHTGSKLVNAVQQDVHAILQLGEAQIEKSARALIDAARNEADEKLSAELSRLEALRAVNPNIRDDELTAIESNRQQVMESLDQAGWRLDALRLIVVTHQ
notes: RapA (HepA), RNA polymerase-associated Swi2/Snf2 ATPase, Escherichia coli; construct of the cryo-EM sample; also called HepA
Question: Does B1 bind [1]?
Answer: binds

Question: Does B1 bind [2]?
Answer: binds
